This note sets out measurements from PMC5651886.

For the test, the target named is pre-fusion RSV F DS-Cav1 (human respiratory syncytial virus (hRSV A strain)). The test can be described thus: SEC; UPLC on a BEH200 size exclusion chromatography column (Waters Acquity UPLC); final purified protein after thrombin cleavage, 10 mM potassium phosphate pH 7.2.

By stoichiometry N is commonly meant a count of units in the complex or per binding partner.

Turning to “pre-fusion RSV F DS-Cav1 (natural protein)”, the stoichiometry N was 3.
